Usually Kd stands for the constant that tells how readily two partners part at equilibrium. High values mean lower affinity, low ones higher affinity.

Assay [1] has as its target T1, human FcgRIIb extracellular domain (human, UniProt P31994 43-217).
T1 construct: extracellular domain; also called hFcgRIIb
T1 sequence (looked up): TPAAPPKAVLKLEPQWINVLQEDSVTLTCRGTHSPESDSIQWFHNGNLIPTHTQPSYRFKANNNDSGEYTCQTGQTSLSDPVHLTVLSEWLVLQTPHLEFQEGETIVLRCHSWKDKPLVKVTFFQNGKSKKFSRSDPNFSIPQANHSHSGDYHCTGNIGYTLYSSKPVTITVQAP
The experiment in a line: SPR 25C.

Assay [2] concerns the target T2, human FcgRIa extracellular domain (human, UniProt P12314 16-292).
T2 construct: extracellular domain; also called hFcgRIa
The experiment in a line: SPR 25C.

For assay [3], the target named is T3, human FcgRIIa type H extracellular domain (human, UniProt P12318 34-217).
T3 construct: extracellular domain; also called hFcgRIIaH
T3 sequence (looked up): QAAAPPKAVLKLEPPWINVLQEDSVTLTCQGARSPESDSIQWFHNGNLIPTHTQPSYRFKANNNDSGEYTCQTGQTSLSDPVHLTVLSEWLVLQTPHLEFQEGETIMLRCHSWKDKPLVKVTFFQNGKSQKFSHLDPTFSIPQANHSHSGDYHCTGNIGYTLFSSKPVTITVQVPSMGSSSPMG
The experiment in a line: SPR 25C.

For assay [4], the target named is T4, human FcgRIIIa F158 extracellular domain (human, UniProt P08637 17-208).
T4 construct: extracellular domain; also called hFcgRIIIaF
The experiment in a line: SPR 25C.

Assay [5] addresses T5, human FcgRIIIa V158 extracellular domain (human, UniProt P08637 17-208).
T5 construct: extracellular domain; also called hFcgRIIIaV
Put plainly: SPR 25C.

Assay [6] has as its target T6, human FcgRIIa type R extracellular domain (human, UniProt P12318 34-217).
T6 construct: extracellular domain; also called hFcgRIIaR
T6 sequence (looked up): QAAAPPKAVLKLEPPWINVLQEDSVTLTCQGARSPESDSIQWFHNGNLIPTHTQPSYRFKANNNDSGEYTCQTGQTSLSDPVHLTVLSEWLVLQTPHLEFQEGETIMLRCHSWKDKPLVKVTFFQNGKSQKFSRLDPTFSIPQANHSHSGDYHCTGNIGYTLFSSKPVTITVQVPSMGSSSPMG
The experiment in a line: SPR 25C.

Another assay addresses human FcRn (human, UniProt P55899 24-290; P61769 21-119). The experiment in a line: SPR 25C pH 6.0, steady state. Put shortly: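 Antibody (~400 RU) captured on anti-Fab-lambda sensor chip, human FcRn injected as analyte.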

T2 sequence (P12314 16-292): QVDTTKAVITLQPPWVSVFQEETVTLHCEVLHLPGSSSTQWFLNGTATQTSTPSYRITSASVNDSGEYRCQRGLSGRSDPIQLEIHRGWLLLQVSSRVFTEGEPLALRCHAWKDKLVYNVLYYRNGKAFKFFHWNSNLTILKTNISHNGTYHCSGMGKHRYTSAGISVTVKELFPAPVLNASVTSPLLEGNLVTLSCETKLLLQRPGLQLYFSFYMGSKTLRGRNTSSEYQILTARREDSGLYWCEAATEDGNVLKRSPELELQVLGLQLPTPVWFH
Sequence of human FcRn (P55899 24-290 limits assumed, chain 1 of 2): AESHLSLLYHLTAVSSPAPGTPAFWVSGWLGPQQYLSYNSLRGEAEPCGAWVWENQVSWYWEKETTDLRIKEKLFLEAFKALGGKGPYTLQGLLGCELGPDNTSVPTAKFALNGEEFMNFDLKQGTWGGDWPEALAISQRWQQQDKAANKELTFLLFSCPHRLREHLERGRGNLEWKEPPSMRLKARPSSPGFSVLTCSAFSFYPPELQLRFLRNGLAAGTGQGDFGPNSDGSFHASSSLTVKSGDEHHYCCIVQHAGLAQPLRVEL
Sequence of human FcRn (P61769 21-119 limits assumed, chain 2 of 2): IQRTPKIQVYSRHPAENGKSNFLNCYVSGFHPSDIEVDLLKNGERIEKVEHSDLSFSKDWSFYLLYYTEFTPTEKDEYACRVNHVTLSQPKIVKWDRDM
T4 sequence (P08637 17-208): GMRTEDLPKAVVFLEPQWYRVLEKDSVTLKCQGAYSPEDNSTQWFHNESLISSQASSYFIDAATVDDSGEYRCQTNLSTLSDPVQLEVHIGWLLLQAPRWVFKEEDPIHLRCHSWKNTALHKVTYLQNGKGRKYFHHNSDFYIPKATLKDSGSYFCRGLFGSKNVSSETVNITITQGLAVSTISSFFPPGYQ
T5 sequence (P08637 17-208 F176V): as the sequence (P08637 17-208) above, with F160V counted along it

B1: A375-SCF059a/B167-Lamlib (antibody, human IgG1, lambda)
heavy: EVQLVESGGGLVKPGGSLRLSCAASGFTFSTFTMNWVRQAPGKGLEWVSSISSKSTYIEYADSFKVRFTISRDNAKNSLYLQMNSLRAEDTAVYYCARYGAKNFLNWVFDYWGQGTLVTVSSASTKGPSVFPLAPSSKSTSGGTAALGCLVKDYFPEPVTVSWNSGALTSGVHTFPAVLQSSGLYSLSSVVTVPSSSLGTQTYICNVNHKPSNTKVDKRVEPKSCDKTHTCPPCPAPELLNGPSVFLFPPKPKDTLMISRTPEVTCVVVDVSDEDPEVKFNWYVDGVEVHNAKTKPREEQYNSTYRVVSVLTVLHRDWLNGKEYKCKVSNKALPKPIEKTISKAKGQPREPQVYTLPPSREEMTKNQVSLTCLVKGFYPSDIAVEWESNGQPENNYKTTPPVLDSDGSFFLYSKLTVKKSRWQQGNVFSCSVMHEALHNHYTQKSLSLSP
light: QSALTQPPSASGSPGQTVTISCTGTRYDVGYYEYVSWYQQHPGKAPKLMIYETSKRLSGVPDRFSGSKSGNTASLTVSGLQAEDEADYYCSSYRYEHQVSFGGGTKLTVLGQPKAAPSVTLFPPSSEELQANKATLVCLISDFYPGAVTVAWKADSSPVKAGVETTTPSKQSNNKYAASSYLSLTPEQWKSHRSYSCQVTHEGSTVEKTVAPTECS
notes: copies: 2 + 2
Turning to B1, the “binding per 1RU antibody” value was found to be 0.0358 RU in assay [1]; 0.038 RU in assay [2]; 0.0502 RU in assay [3]; 0.001 RU in assay [4]; 0.0021 RU in assay [5]; 0.0319 RU in assay [6]. The “relative binding (A375-G1T3/B167-Lamlib=1)” value (from here on “relative binding”) was 3.27 in assay [1]; 0.47 in assay [2]; 0.88 in assay [3]; 0.05 in assay [4]; 0.03 in assay [5]; 0.69 in assay [6]. Also, binding in the assay with human FcRn was put at a Kd of 1030 nM.

B2: A375-TT14/B167-Lamlib (antibody, human IgG1, lambda)
heavy: EVQLVESGGGLVKPGGSLRLSCAASGFTFSTFTMNWVRQAPGKGLEWVSSISSKSTYIEYADSFKVRFTISRDNAKNSLYLQMNSLRAEDTAVYYCARYGAKNFLNWVFDYWGQGTLVTVSSASTKGPSVFPLAPSSKSTSGGTAALGCLVKDYFPEPVTVSWNSGALTSGVHTFPAVLQSSGLYSLSSVVTVPSSSLGTQTYICNVNHKPSNTKVDKKVEPKSCDKTHTCPPCPAPEYLGGDSVFLFPPKPKDVLMISRTPEVTCVVIDVSHEDPEVKFNWYVDGVEVHNAKTKPREEQYNSTYRVVSVLPVLHQDWLNGKEYKCKVSNKALPKPIEKTISKAKGQPREPQVYTLPPSREEMTKNQVSLTCLVKGFYPSDIAVEWESNGQPENNYKTTPPVLDSDGSFFLYSKLTVDKSRWQQGNVFSCSVMHEALHNHYTQKSLSLSP
light: QSALTQPPSASGSPGQTVTISCTGTRYDVGYYEYVSWYQQHPGKAPKLMIYETSKRLSGVPDRFSGSKSGNTASLTVSGLQAEDEADYYCSSYRYEHQVSFGGGTKLTVLGQPKAAPSVTLFPPSSEELQANKATLVCLISDFYPGAVTVAWKADSSPVKAGVETTTPSKQSNNKYAASSYLSLTPEQWKSHRSYSCQVTHEGSTVEKTVAPTECS
notes: copies: 2 + 2
With B2, the “binding per 1RU antibody” value in assay [1] was found to be 0.0805 RU; in assay [2], 0.0045 RU; in assay [3], 0.0042 RU; in assay [4] it was 0 RU; in assay [5], 0.0003 RU; in assay [6], 0.0067 RU. The “relative binding” value in assay [1] amounted to 7.34; in assay [2], 0.05; in assay [3], 0.07; in assay [4], 0; in assay [5], 0; in assay [6], 0.14. In the assay with human FcRn, the Kd came out at 1770 nM.

B3: A375-SCF060a/B167-Lamlib (antibody, human IgG1, lambda)
heavy: EVQLVESGGGLVKPGGSLRLSCAASGFTFSTFTMNWVRQAPGKGLEWVSSISSKSTYIEYADSFKVRFTISRDNAKNSLYLQMNSLRAEDTAVYYCARYGAKNFLNWVFDYWGQGTLVTVSSASTKGPSVFPLAPSSKSTSGGTAALGCLVKDYFPEPVTVSWNSGALTSGVHTFPAVLQSSGLYSLSSVVTVPSSSLGTQTYICNVNHKPSNTKVDKRVEPKSCDKTHTCPPCPAPELWNGPSVFLFPPKPKDTLMISRTPEVTCVVVDVSDEDPEVKFNWYVDGVEVHNAKTKPREELYNSTYRVVSVLTVLHRDWLNGKEYKCKVSNTALPKPIEKTISKAKGQPREPQVYTLPPSREEMTKNQVSLTCLVKGFYPSDIAVEWESNGQPENNYKTTPPVLDSDGSFFLYSKLTVDKSRWQQGNVFSCSVMHEALHNHYTQKSLSLSP
light: QSALTQPPSASGSPGQTVTISCTGTRYDVGYYEYVSWYQQHPGKAPKLMIYETSKRLSGVPDRFSGSKSGNTASLTVSGLQAEDEADYYCSSYRYEHQVSFGGGTKLTVLGQPKAAPSVTLFPPSSEELQANKATLVCLISDFYPGAVTVAWKADSSPVKAGVETTTPSKQSNNKYAASSYLSLTPEQWKSHRSYSCQVTHEGSTVEKTVAPTECS
notes: copies: 2 + 2
For B3, the “binding per 1RU antibody” value in assay [1] was found to be 0.0472 RU; in assay [2], 0.0021 RU; in assay [3], 0.0463 RU; in assay [4] it was 0.0011 RU; in assay [5], 0.0008 RU; in assay [6], 0.0459 RU. In addition, the “relative binding” value stood at 4.31 in assay [1]; 0.03 in assay [2]; 0.82 in assay [3]; 0.05 in assay [4]; 0.01 in assay [5]; 0.99 in assay [6]. This molecule also showed a Kd in the assay with human FcRn of 1010 nM.

B4: A375-SCF059aPh/B167-Lamlib (antibody, human IgG1, lambda)
heavy: EVQLVESGGGLVKPGGSLRLSCAASGFTFSTFTMNWVRQAPGKGLEWVSSISSKSTYIEYADSFKVRFTISRDNAKNSLYLQMNSLRAEDTAVYYCARYGAKNFLNWVFDYWGQGTLVTVSSASTKGPSVFPLAPSSKSTSGGTAALGCLVKDYFPEPVTVSWNSGALTSGVHTFPAVLQSSGLYSLSSVVTVPSSSLGTQTYICNVNHKPSNTKVDKRVEPKSCDKTHTCPPCPAPELWNGPSVFLFPPKPKDTLMISRTPEVTCVVVDVSDEDPEVKFNWYVDGVEVHNAKTKPREEQYNSTYRVVSVLTVLHRDWLNGKEYKCKVSNKALPKPIEKTISKAKGQPREPQVYTLPPSREEMTKNQVSLTCLVKGFYPSDIAVEWESNGQPENNYKTTPPVLDSDGSFFLYSKLTVKKSRWQQGNVFSCSVMHEALHNHYTQKSLSLSP
light: QSALTQPPSASGSPGQTVTISCTGTRYDVGYYEYVSWYQQHPGKAPKLMIYETSKRLSGVPDRFSGSKSGNTASLTVSGLQAEDEADYYCSSYRYEHQVSFGGGTKLTVLGQPKAAPSVTLFPPSSEELQANKATLVCLISDFYPGAVTVAWKADSSPVKAGVETTTPSKQSNNKYAASSYLSLTPEQWKSHRSYSCQVTHEGSTVEKTVAPTECS
notes: copies: 2 + 2
Turning to B4, the “binding per 1RU antibody” value in assay [1] was 0.0291 RU; in assay [2] it was 0.0089 RU; in assay [3], 0.0332 RU; in assay [4], 0.0003 RU; in assay [5], 0.0028 RU; in assay [6], 0.0319 RU. The “relative binding” value in assay [1] was 2.66; in assay [2] it was 0.11; in assay [3] it was 0.59; in assay [4], 0.01; in assay [5], 0.04; in assay [6], 0.69. This molecule also displayed a Kd in the assay with human FcRn of 1050 nM.

The values above are taken from patent US20230272099A1 (Chugai, published 2023).
